From publication PMC2568053, “Relevance of the Diversity among Members of the Trypanosoma Cruzi Trans-Sialidase Family Analyzed with Camelids Single-Domain Antibodies” (PLoS ONE, 2008)
Where a chain is given by its changes, count along the chain named.

B1: VHH clone WI58 (VHH)
VHH: GGGLVQAGGSLRLSCAASGLTLGNYAMGWFRQAPGKERELVAAISWSGGSTYYPDSVKGRFTISRDNAKNTVYLQMNSLKPEDTAVYYCAADGQLVPLPRLSDGVDYWGKG
notes: not shown: His6, C-terminal, kept
B2: VHHSI52 (VHH)
VHH: GGGLVQAGGSLRLSCAASGRTFYNYAMGWFRQAPGKEREFVAAISWSGGSTLYTDSVKGRFTISRANGQNTVYLQMNSLKPEDTAVYYCAADADAQPMGIIENYDYWGQG
notes: also called clone SI52; not shown: His6, C-terminal, kept
B3: VHHSI14 (VHH)
VHH: B2 VHH with T54A, G68A, S78K, I100V
notes: also called clone SI14; VHHS14; not shown: His6, C-terminal, kept
B4: VHHSI57 (VHH)
VHH: B2 VHH with F22L, L52E, T54A, G68A, T71K, I100V
notes: also called clone SI57; not shown: His6, C-terminal, kept
B5: VHHSI96 (VHH)
VHH: B2 VHH with R20P, L52Y, T54A, G68A, Q69H
notes: also called clone SI96; not shown: His6, C-terminal, kept

What was measured:
[1] = molecular target: T1, recombinant Trypanosoma cruzi trans-sialidase TcTS611/2 (Trypanosoma cruzi, clone TcTS611/2 …, UniProt Q26966); test: far-Western, overlay or dot blot; 300 ng of each His-tagged VHH spotted on nitrocellulose, probed with native TcTS611/2, revealed with rabbit anti-TcTS serum and HRP secondary; details: both partners purified
T1 construct: Trypanosoma cruzi trans-sialidase (TcTS), clone 611/2: entire globular core of TcTS without SAPA repeats; also called recombinant TcTS; pTrcTS611/2

[2] = molecular target: recombinant TcTS clone TcTS-12 (Trypanosoma cruzi (Cl-Brener strain))
[3] = molecular target: recombinant TcTS clone TcTS-15 (Trypanosoma cruzi (Cl-Brener strain))
[4] = molecular target: recombinant TcTS clone TcTS-24 (Trypanosoma cruzi (Cl-Brener strain))
[5] = molecular target: recombinant TcTS clone TcTS-46 (Trypanosoma cruzi (Cl-Brener strain))
[6] = molecular target: recombinant TcTS clone TcTS-49 (Trypanosoma cruzi (Cl-Brener strain))
[7] = molecular target: T1, recombinant Trypanosoma cruzi …; test: IAsys biosensor; details: both partners purified
[8] = molecular target: T1, recombinant Trypanosoma cruzi …; test: cell-based or functional assay

Row | Binder | binding result [1] | other [2] [% inhibition] | other [3] [% inhibition] | other [4] [% inhibition] | other [5] [% inhibition] | other [6] [% inhibition] | Kd [7] [nM] | koff [7] [s⁻¹] | kon [7] [M⁻¹ s⁻¹] | other [8] [% inhibition]
1 | B1 | binds | – | – | – | – | – | – | – | – | –
2 | B2 | – | 57.2 | 68.7 | 98 | 38.9 | 49 | 69 | 0.0103 | 149000 | 81.3
3 | B3 | – | – | – | – | – | – | 22.3 | 0.00265 | 119000 | –
4 | B4 | – | 57.2 | 81.2 | 98.4 | 31.7 | 51.1 | 86.3 | 0.0143 | 165000 | 83.3
5 | B5 | – | 59.5 | 67.4 | 94.2 | 34.8 | 24.4 | 48.4 | 0.017 | 352000 | 80.5
